This note sets out measurements from the DeepSol protein solubility set.

A short description of the series: soluble on expression in E. coli; label from the status in PepcDB or PDB records.
For the sequence “MAFNSALFDGMVIFSEVVTSGSFTQAALNSGHSTSYISKEIGKLEERLGVRLLHRTTRTLRLTPEGELYFQQCQQLIEDAQMAENSITGQQEKPKGRLKVSCPVGFALSRLRPILGKFTDLYPDIILELDLNDKKIDIVAEGFDMAIRASHQLEDSSLISRRFLRSKAITIASPGYLKKHGAPLYPHDLSSHKTIGYAYVKQGAIWDFFDKNKQPFSVQLNSQVITNNSFMALSLCLAEQGITRIPHFHLTDELETGKLVELFADYPKLTIDIFMVYPSRKHMSAKVRCFMDFISEHLGD”, the “soluble on expression in E. coli” value is given as “not soluble”. Regarding “MAGASVKVAVRVRPFNSREMSRDSKCIIQMSGSTTTIVNPKQPKETPKSFSFDYSYWSHTSPEDINYASQKQVYRDIGEEMLQHAFEGYNVCIFAYGQTGAGKSYTMMGKQEKDQQGIIPQLCEDLFSRINDTTNDNMSYSVEVSYMEIYCERVRDLLNPKNKGNLRVREHPLLGPYVEDLSKLAVTSYNDIQDLMDSGNKPRTVAATNMNETSSRSHAVFNIIFTQKRHDAETNITTEKVSKISLVDLAGSERADSTGAKGTRLKEGANINKSLTTLGKVISALAEMDSGPNKNKKKKKTDFIPYRDSVLTWLLRENLGGNSRTAMVAALSPADINYDETLSTLRYADRAKQIRNTVSVNHHHHH”, the “soluble on expression in E. coli” value is “soluble”. Turning to “MAGDPMFKKRLNKDKINDCYTWEEELPDGSYDMGFHGNLNHMEKGKSGYVTHKQLDKKLEVFKQDLLVELSEKFVTKEEFRAQGKQIKELQIEQKAQGKTLQLILEALQGINKRLDKLESKLEHHHHHH”, the “soluble on expression in E. coli” value is recorded as “soluble”. Regarding “MAGDPMKKLAFAITATSGAAAFLTHHDAQASTQHTVQSGESLWSIAQKYNTSVESIKQNNQLDNNLVFPGQVISVGGSDAQNSSNTSPQAGSASSHTVQAGESLNIIASRYGVSVDQLMAANNLRGYLIMPNQTLQIPNGGSGGTTPTATTGSNGNASSFNHQNLYTAGQCTWYVFDRRAQAGSPISTYWSDAKYWAGNAANDGYQVNNTPSVGSIMQSTPGPYGHVAYVERVNGDGSILISEMNYTYGPYNMNYRTIPASEVSSYAFIHLEHHHHHH”, the “soluble on expression in E. coli” value is recorded as “not soluble”. “MAGDPMREITDIAVAESGDSDFKERLETKNAKSWLKSVSAFANGIGGTLYFGVEDRTRRIIGVQDIQLTISKITELIVARITPRPVFECIPLQQKGKDILAVRVDSGKHTPFYYVHDHHHTAYIRMGDESVPATDYQLNELILKGRNETYDSQITEKLRTDYSFTLLEATYLHTLNQHMSDSDYVSFGLAVEDGRLTNAGLLFADQCPLPDSRVFCTRWNGLQRGSVHEDATDDAEYSGNLIYLLKSATEFIRRNTRKGWTKTANGRVEKPDYAERAYFEGVVNALIHRTYDFRGTEVHVEMYDDRLVISSPGGIYGGGELEPMSDGSYISKRRNPILADIFSRLRYMERRGSGIKKIFEATKNLYGYTEEKKPFFLVNKQNDFFLTIPNVNYRSESVTTHDTIHDTIHDTIHDTIHDKIALLLSFCQTPRSREEMMEFVGLRNRDHFQKKYLRPLLEQEKIEMTIPEKPQSKNQKYRTKEVVKLEHHHHHH”: the “soluble on expression in E. coli” value was “soluble”. For “MAGDPMRRTLYRLMIELTNGRFTSYILRKFAQSRLSSIIIPSYAKVFQINQDEMEKGLKEYRTLHELFTRKLKEGKRSIDTDASSIVSPVDGVFADHGPIEDTKTFDIKGKRYSIVDMLGNEERATRYAGGTYMVIYLSPSHYHRIHSPLSGSVTERFVLGRKSYPVNAAGMEYGKEPLSKNYRSVTEVSSDGEHMALVKVGAMFVNSIELLHERDTVQKGEEMAYFTFGSTVVLLFEKDMIEVVQELKSGQELRLGEKIATRLAHKLEHHHHHH”, the “soluble on expression in E. coli” value is given as “not soluble”. Regarding “MAGDPMRVEVGQIVNTHGIKGEIKVKSNSDFTDVRFQPGQVLTVVHNNNDLEYTVKSHRVHKGLHMLTFEGINNINDIEHLKGSSIYQERDHEDIVLEENEFYYSDIIGCTVFDDQETPIGRVINIFETGANDVWVIKGSKEYLIPYIADVVKEVDVENKKIIITPMEGLLDLEHHHHHH”, the “soluble on expression in E. coli” value is listed as “soluble”. In the case of “MAGDRKRGFIRPDEDYALIEPQRWGLPDYGDSKEKKAKQTAFNYDPSWVPNFDEPEEEQALELTEEQIELIKQGAYQEGLYQGQEAGFKQGYDKGKEEGLQAGHAEGLELGKAEGVSAGQEFIQQQVEVFMNLANQFAQPLELMNAQVEKQLVDMVLCLVKEVVHVEVQTNPQIILDTVKQSVEALPISGHPITLHLNPEDVAIIRSAYGEEDLDCRNWTLVSEPSLNRGDVQIEAGESSINYRMEERIKSVLHSFCGANRHQEGELEHHHHHH”, the “soluble on expression in E. coli” value was “soluble”. As for “MAGFFNKLTGFFTISRQHNPPFEAASKSRRMGGFDPAKKHINKAIEECGDTIVARSRWLYDNESLYGSATEEWVSAAVSDGIKPYPRIEGFQEEKKKLLDLWWQWVDEADYDEDANFYGLQATIAREVFLTGECFVRLHYVDLYGRSGVPFQLQIYPTEMLDLTYNGPAETEGNYIRMGIEFNASGKRVAYHFWEHHPYDDCPANRAFKSQDRIRVPAEMVLHIKERRIAGQLRGSPKITRSMTKIFQLESYDDAELDRKRTAALFAVFITGKESHDAALEENREQTRLPKKPEEAADVDKIYPGSVNMVDGEKQITFSTPVEVGGSYEAFQFRNILKICSALNMPYAVVTGDVTRGNFSNVRTSIIQFRRHVKQWREHIIAFQFNRIVWERFVEMAVLSGRVHLPGWEENPLPWLQCESFAPPLEMIDPNKDISAEKEEIRAGLKTRRMALAERGFDIDSIHAELEEEHTDARARGLSFDTDMAASSGDNQIIDTTDSDPSETYESNQGSEAHKNGE”, the “soluble on expression in E. coli” value is given as “not soluble”.

“MAGFISNFFGVGDSDSQYEEPTEASQAAAPTESATNTRSTPKVVPMQGGKSVNSKIALFEPKIYSDVKEIATQLLKNQAVIINFDHVDDEMARRIVDFLTGTVFAINGEIERIGDEIFLCIPENYEVSGSTTSQFDTSKLLEHHHHHH”: the “soluble on expression in E. coli” value is “not soluble”. Consider “MAGIAMKLAKDREAAEGLGSHERAIKYLNQDYETLRNECLEAGALFQDPAFPPVSHSLGFKELGPNSSKTYGIKWKRPTELLSNPQFIVDGATRTDICQGALGDSWLLAAIASLTLNETILHRVVPYGQSFQEGYAGIFHFQLWQFGEWVDVVVDDLLPTKDGKLVFVHSAQGNEFWSALLEKAYAKVNGSYEALSGGCTSEAFEDFTGGVTEWYDLQKAPSDLYQIILKALERGSLLGCSINISDIRDLEAITFKNLVRGHAYSVTDAKQVTYQGQRVNLIRMRNPWGEVEWKGPWSDNSYEWNKVDPYEREQLRVKMEDGEFWMSFRDFIREFTKLEICNLTPDALKSRTLRNWNTTFYEGTWRRGSTAGGCRNYPATFWVNPQFKIRLEEVDDADDYDSRESGCSFLLALMQKHRRRERRFGRDMETIGFAVYQVPRELAGQPVHLKRDFFLANASRAQSEHFINLREVSNRIRLPPGEYIVVPSTFEPNKEGDFLLRFFSEKKAGTQELDDQIQANLPDEKVLSEEEIDDNFKTLFSKLAGDDMEISVKELQTILNRIISKHKDLRTNGFSLESCRSMVNLMDRDGNGKLGLVEFNILWNRIRNYLTIFRKFDLDKSGSMSAYEMRMAIEAAGFKLPCQLHQVIVARFADDELIIDFDNFVRCLVRLEILFKIFKQLDPENTGTIQLDLISWLSFSVLGKLAAAIEHHHHHHMHYSNIEANESEEERQFRKLFVQLAGDDMEVSATELMNILNKVVTRHPDLKTDGFGIDTCRSMVAVMDSDTTGKLGFEEFKYLWNNIKKWQGIYKRFETDRSGTIGSNELPGAFEAAGFHLNQHIYSMIIRRYSDETGNMDFDNFISCLVRLDAMFRAFRSLDKNGTGQIQVNIQEWLQLTMYS”, for which the “soluble on expression in E. coli” value was “soluble”. Turning to “MAGMFQDLLYLNLIGAVRAITAAQGIKIRISGEENVPESGGAVVVVNHTGYLDFIYAGYPFRKFRRYIRYMAKGDVFKHPVAGPLLREMRHIPVDRIDGTAAFDQAVDMLKKGELVGIFPEATISRSFEIKTLRPGAVRMAQAAGVPIIMVMVVGSQRVWTKGQKKNLIHPGSPIHMKVFPAWYPEGDANEATQELRRRMITGLEEVWSDYQAEEPIVPGALWVPARLGGGAPTFDEAQAEDEKVEQERRRVRVLTEEIAQLTERIKQATKAGASAVDAARHRVEDVLHGEVPAKADAGKALSVLKDTVDEFVEEVVSSAKEGKDRVMDAGEQLRRSVADLYGQAVTASQVNPVVVQATAQVSMLLDRLPQRKDAPKVELPRVLVLSVDGAVAAYPEVTLSPSVLSQVAALSQQHTVVLTTISGMDRVVALARQVAQESGADVCVSASAGAVAATVSDTDVSVLHECVVSDELRAAVQECVDSLGLDVEWKGAHHGVVSGLGADPDLWQELSQVVRVVPLPGEPDRCVIVSPEASVEAAVQTCVGDVWDEVLVCAADASEAGALARAGHRVAVVSAPVVVLREAAQWCDRPDKDGVINFLDKHFITPESV”, the “soluble on expression in E. coli” value is recorded as “not soluble”.

Turning to “MAGQEFEKLLFYIVTVPFFVRAEPTTGELINPQAGAPFFLATAATTMDYEVEMVITSEAGYLLMRDNAKKVKVRPGVEQTVYDFIKMAKDAGVKIYLCTPSLDLTDIYKEEDVNKEICDGILGGAAFLDKLMSGEYAVITL”, the “soluble on expression in E. coli” value is listed as “not soluble”.

Consider “MAGRPKDPTINKKIYTEIQRLLETTHFRDITIDQISENTGISKATIYRRWKDKSSIIMSAFIEQSQYIAIHNQDNLYDDLFQFLVKIKDIYKTKLGSAVIEILISHQQMEARETFMTNYFNHNRKVLKEIVRKHIQEEEQDLFIDLIFSPIYFNILIKPETLDENYIKKMLNQVLRIYH”, for which the “soluble on expression in E. coli” value is “not soluble”. The same measure for “MAGTISDYGGRQQIWNLGNNIIDTKKLVDLELQALEMKKSPYTTQKQTLTNEKNVYASMKKEFGNLVQVFKDLYAFKGDEKKTTLSKDGFMKAQADAAAIPGTYTITVERVAERHQITTAPLTPSKTPESMEQKFSLDLKLGVDDVFQINGKEVKISKDMTYKDLVNKINNGNYGASVYTLGDQLFFTSTTAGEAGELKLTDGANGFLQNIGLVTSAKNPDGTNVVAHQVTGAINAEYTINGIKGTSKTNKIDTIPGLTINLEKETTEPIKLTIEDSDIKNSIDLIKKMKDEYNKAVKSLDLFAGENGVMQGSNVSFAINNAMTGIFKFSQDDKYLFSFGIQIDKKGNMTLDEEKLKTAFKENPESTKQFFFGLNGLGHDTEKKLDGIFGDEGIIGKRSKSIEKQVTDLERKIQDIDTVNKEKQKTIIDKYAKLESQLALLDSQLKTIQAMTKTKSDD”: “not soluble”; for “MAGTRDYDHLFKLLIIGDSGVGKSSLLLRFADNTFSENYITTIGVDFKIRTMDINGQRVKLQIWDTAGQERFRTITSTYYRGTHGVVVVYDVTNGESFGNVKRWLQEIENNCDSVQKVLVGNKCEENERRVVLESDARNYAQSMNISFFETSAKEDKNVEPMFTCITSLVLTAKLANPQSASKDQSRTGGVSLKDNSGSTNQKKKCKCG”: “not soluble”. The same measure for “MAGVRQHGWRAIPAVCSEYGADTLPDRYRSDGRCLLFRQQAGISALKQELEVKTPYRAMNHPVIGVVTKADLASMEQISLVKCWLREAGAHNVLVTSAVNNNGVTELFALLHTEEGCR”: “not soluble”; for “MAGYALKRLMTEYKELTTRPPEGIIAAPIDEDNFFEWECLITGPEETCFANGVFPARITFPQDYPLSPPKMRFTCGIFHPNIYADGRVCISILHAPGDDPTGYELSNERWSPVQSIEKILLSVVSMLAEPNDESPANVSAAKMWREDRAQFEKIADSLVRKTLCLPASEV”: “not soluble”.
